# Patent publication US20060062793A1, “Modified antibodies to prostate-specific membrane antigen and uses thereof” (priority 2004, published 2006)
# What was measured:
# [1] = test system: LNCap membrane preparation; assay: ELISA for binding of J415 deimmunized antibodies to LNCap membrane preparation; design: species or system human
# Description: The J415 deimmunized antibodies (including various combinations of the deimmunized light chain and heavy chain subunits) were tested in an ELISA for binding to LNCap membrane preparation following the protocol as detailed above. ELISA plates were coated with LNCap membrane preparation and blocked with 5% BSA in phosphate buffered saline. Doubling dilutions of the J415 chimeric antibody (murine variable heavy and light chain regions fused to human constant heavy and light chain regions, respectively) and the deimmunized antibodies were applied. Detection was with horseradish peroxidase conjugated goat anti-human IgG and donkey anti-mouse for chimeric and mouse antibodies respectively. Color was developed with o-phenylene diamine substrate.
# [2] = test system: PSMA-positive human LNCaP tumors; assay: Biodistribution of 111In labeled MAbs in nude mice bearing LNCaP tumors; assay type: in vivo, mouse
# Description: Prior to use, the cells were trypsinized, counted and suspended in Matrigel (Collaborative Biomedical Products, Bedford, Mass.). Nu/Nu Balb C mice 8-10 weeks of age were inoculated, in the right and left flanks, with a suspension of 5×10^6 LNCaP cells in Matrigel (BD Biosciences, Bedford Mass.). After a period of 14-18 days, tumors (100-300 mg) had developed. The PSMA-negative DU145 and PC3 cells were implanted in nude mice in an identical manner.
# The PSMA-positive and PSMA-negative tumor bearing mice were injected, via the tail vein, with 80 KBq of the iodinated MAb (400 MBq/mg) in 200 μL of PBS (pH 7.4, 0.2% BSA). Groups of animals (3-8/group) were sacrificed after 2, 4 or 6 days. The major organs and tumors were recovered. The tissue samples were weighed and counted, with appropriate standards in an automatic NaI(Tl) counter. These measured relative activity data (cpm) were background corrected and expressed as a percentage of the injected dose per gram (% ID/g). […] J415, J591 and 7E11 were labeled with ^111In (100 MBq/mg). 80 KBq of the ^111In labeled MAbs were injected in groups of animals. The % ID/g in various organs and tumor tissues was determined at 2-6 days post injection in a similar way as described for ^131I labeled MAbs.
# LNCaP tumor sections = assay type: in vivo, mouse; settings: 131I-labeled, 4 to 6 days after intravenous injection
# Description: For several animals (n=20), harvested tumor samples were immediately cooled in liquid nitrogen and frozen in embedding medium (O.C.T. 4583, Sakura Finetec, Torrance Calif.). Twenty micron sections were cut and the tumor sections were either fixed with acetone and placed in direct contact with a sheet of photographic film (Biomax, Kodak, Rochester, N.Y.) or stained with hematoxin/eosin prior to exposure of the film. Tumors from control animals were collected and cut into 10 μm sections. […] Non-specific binding was determined in the presence of 100 nM J591 MAb. These sections were then washed 3 times with PBS (containing 0.2% BSA) and once with Tris buffer prior to being fixed with acetone and then exposed to photographic film.
Molecule,binding to LNCap cells as compared to the chimeric antibody [1],kinetics of blood clearance [2],tumor uptake over time [2],tumor/blood ratios [2],intra-tumoral distribution pattern (LNCaP tumor sections)
"deJ415: deimmunized J415, heavy chain J415DIVH4 combined with light chain J415DIVK5; ATCC PTA-4174 (antibody, V domains shown) VH: EVKLEESGGGLVQPGGSMKISCVASGFTFSNYWMNWVRQSPEKGLEWVAEIRSQSNNFATHYAESVKGRVIISRDDSKSSVYLQMNSLRAEDTAVYYCTRRWNNFWGQGTTVTVSS VL: NIVMTQFPKSMSASAGERMTLTCKASENVGTYVSWYQQKPTQSPKMLIYGASNRFTGVPDRFSGSGSGTDFILTISSVQAEDLVDYYCGQSYTFPYTFGGGTKLEMK",equivalent binding,,,,
"J415: murine monoclonal antibody to human PSMA; hybridoma ATCC HB-12109 (antibody, V domains shown) VH: EVKLEESGGGLVQPGGSMKLSCVASGFTFSNYWMNWVRQSPEKGLEWVAEIRSQSNNFATHYAESVKGRVIISRDDSKSSVYLQMNNLRAEDTGIYYCTRRWNNFWGQGTTLTVSS VL: NIVMTQFPKSMSISVGERVTLTCKASENVGTYVSWYQQKPEQSPKMLIYGASNRFTGVPDRFTGSGSATDFILTISSVQTEDLVDYYCGQSYTFPYTFGGGTKLEMK",,faster compared to 7E11,gradually increased with time and is quite similar to that of 7E11,significantly higher compared to that of 7E11,distinct preferential accumulation in areas of viable tumor
